The source of these data is publication PMC10910794, “Toxoplasma sortilin interacts with secretory proteins and it is critical for parasite proliferation” (Parasites & Vectors, 2024).

Experiment [1] deals with T1, GST-Vps10 (Vps10 subdomain of T. gondii sortilin) (Toxoplasma gondii, UniProt A0A7J6KCY2).
T1 construct: gene TGRH88_014830; Vps10 subdomain (160-667 aa) of 1033-aa sortilin; GST-tagged from pGEX-4T-1, E. coli BL21 (DE3); tag kept; biotinylated with NHS-PEG12-biotin
Kind of experiment: bio-layer interferometry, biotinylated GST-Vps10 on SSA sensor. Particulars: AF38469 at 100-500 nM diluted in DMSO; PBS, DMSO as negative control. In kind it is binding. (In BLI a coated tip is dipped into the sample, and binding shifts an interference pattern.)

For a further experiment, the target named is T2, His-TgROP9 (Toxoplasma gondii, UniProt S8F3X8 1-353).
T2 chain: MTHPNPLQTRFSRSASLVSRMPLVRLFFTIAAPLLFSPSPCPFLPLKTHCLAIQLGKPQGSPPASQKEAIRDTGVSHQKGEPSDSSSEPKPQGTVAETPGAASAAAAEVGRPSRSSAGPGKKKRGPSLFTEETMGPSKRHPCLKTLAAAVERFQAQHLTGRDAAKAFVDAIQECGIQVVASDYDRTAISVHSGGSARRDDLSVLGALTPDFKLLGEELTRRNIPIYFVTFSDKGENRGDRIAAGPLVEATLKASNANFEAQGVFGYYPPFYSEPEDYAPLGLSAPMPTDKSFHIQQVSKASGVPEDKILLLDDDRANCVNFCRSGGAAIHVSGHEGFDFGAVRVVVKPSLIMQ
In words: BLI.

In the next experiment the target is T3, His-TgMIC3 (Toxoplasma gondii, UniProt A0A7J6KDB0 27-383).
T3 chain: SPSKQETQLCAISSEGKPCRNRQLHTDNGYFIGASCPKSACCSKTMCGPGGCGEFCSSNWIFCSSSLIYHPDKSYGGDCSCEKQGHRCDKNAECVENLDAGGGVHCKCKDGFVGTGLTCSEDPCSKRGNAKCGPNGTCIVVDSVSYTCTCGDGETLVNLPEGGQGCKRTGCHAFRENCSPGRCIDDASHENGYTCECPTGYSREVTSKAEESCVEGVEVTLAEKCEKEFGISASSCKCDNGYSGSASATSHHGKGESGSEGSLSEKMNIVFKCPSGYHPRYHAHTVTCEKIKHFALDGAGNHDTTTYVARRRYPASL
Kind of experiment: BLI.

A further experiment addresses T4, His-TgSAG2 (Toxoplasma gondii).
T4 chain: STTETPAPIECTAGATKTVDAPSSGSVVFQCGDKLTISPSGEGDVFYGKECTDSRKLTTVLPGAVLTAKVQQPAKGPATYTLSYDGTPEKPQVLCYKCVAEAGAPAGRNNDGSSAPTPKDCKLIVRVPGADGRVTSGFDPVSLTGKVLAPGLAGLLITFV
Kind of experiment: BLI.

`Cc1cccc(NC(=O)c2ccc(C(F)(F)F)cc2C(=O)O)n1` [AF38469]: the “bio-layer interferometry, biotinylated GST-Vps10 on SSA sensor” value in experiment [1] is given as “only the Vps10 subdomain could bind to AF38469 with high affinity”.

B1: GST-tagged recombinant sortilin protein (natural protein)
chain: MYTSRTPHGGLRRWPLSRSSVSAVASRVLSRSVAFHRRLASFLLSRKKTPLCALSSRPSGLQASSGVQTVTMAHSFARGRPPAAGRTLAVFLAFLAVLSPSLLPEFFSEDAQKRESSVLVANAASYANKKVSVSEVSFDSHIEDIQWCGTDHRTILLKTRRGRLYRSQDGGKSWTEITDLLKSSEAATGTVAVDSIIVSPVDKRVVLIVGSKRNHFISEDSAATFRRLKYKNTIHNFHFHPTRPKYAILSTWTDACYSGSGTASRAQSQQDCNHQLFYTRDLGRSFKLVADYVVQFSWGDKKLGNTDHIFFTQHRGRSGDQPRYGGWSKNVDLMYTPDFGATITRLVYRGNKFLLSNGYFFVAKVKDAAKQTVSLLVSTDGGKSFQMAKLPVEIEERSYTVLDTSEDAIMLHVNHGHDNKGDTGNVYISDAKGVRYSLSLPNNIRTSTGECEFDKVLSLEGVYLANFKDSVDSSASVDGGQQGDLEKLEEEIEEEAEGVQVDLEKKHKSVATRSRQEEVIRTVISFDKGGVWSYLKAPKVDSRGQKIDCPPDRCWLHLNGITRFSDFAPFYSVENAVGIIMGTGNVGSYLRPEKDEANTYLSRDGGVSWIEAHKGAFIYEMGDHGGLLVMADDTKKTNQVVFSWNEGQSWYDFELGAAPLFVDNIVIEPNASSVEFLLYGKREQDSAGVLFHLDFNALNQQQCKGIWAADSVSSDYETWSPSDGRAGGERCILGKHITYTRRKQTSECFNGRDFDRPKVSKVCPCTMEDYECEFGFTRAIGSTQCVATDAAAAAAATATGLAQFADESDAAAAAACTSSSFFYTSAYRKVPGDVCEGGWMPEKVAVPCPAHSPVSRGGKTVLLLLLFIVVVMVVINYLAKTGRLKKFFRNAGFDSFANVSYGLVGASAGGPGGWLDQEAGESRRGEELGERSKYEPELGFIEAEQDENEEDAPTLMNYGNAAGGQRTSGMSSRSPKPTEDFELDDSRPLFPSHVSSRETQGSSGLHPRSTSTENEPIPRLAPPRFDEDNVELL
With B1, the values for the Kd in the experiment with His-TgROP9, with His-TgMIC3 and with His-TgSAG2 were 0.963 nM, 0.847 nM and 915 nM, respectively.

Usually Kd stands for the equilibrium constant for the complex coming apart. Read a low Kd as tighter binding.
